According to patent EP4806905A1, “PEPTIDE, PEPTIDE COMPLEX, PHARMACEUTICAL COMPOSITION, COMPOSITION FOR CELL CULTURE, AND COMPOSITION FOR MEDICAL USE, DIAGNOSTIC USE, OR RESEARCH USE” (PeptiDream Inc., priority 2023, dated 2025):
Numbered stars: 1 amine (or outer) side, 2 acyl side, 3 side chain; on linkers, the order of the positions; unused ones are H or OH. Square brackets hold non-standard residues; d marks the D form. Ends that are not written are not given here. X1 = (S)‑3‑(2-carboxy-2-(methylamino)ethyl)benzoic acid, CN([C@@H](Cc1cccc(C(=O)[*:3])c1)C(=O)[*:2])[*:1]; Trp(7-aza) = N[C@@H](Cc1c[nH]c2ncccc12)C(=O)O; Ala(4-THP) = N[C@@H](CC1CCOCC1)C(=O)O; NMe4Pal = CN[C@@H](Cc1ccncc1)C(=O)O; NMeF = CN[C@@H](Cc1ccccc1)C(=O)O; Tic = O=C(O)[C@@H]1Cc2ccccc2CN1; Cit = NC(=O)NCCC[C@H](N)C(=O)O; NMeV = CN[C@H](C(=O)O)C(C)C

Assays:
Frizzled-2 (FZD2) = target: T1, Frizzled-2 (FZD2) (Mus musculus, UniProt Q9JIP6); test: Evaluation of binding activity to Frizzled using ELISA (Frizzled-2); conditions: peptide complex (linker structure number 9 added to the peptide) diluted to 10 nM; absorbance at 450 nm minus wells with no added peptide complex
T1 construct: purchased R&D systems 1307-FZ
Description: (§1) In order to evaluate the binding activity of the synthesized peptide complexes (peptide complexes having the linker structure number 9 added to peptide sequence numbers 1 to 78) to Frizzled, a binding activity evaluation using the ELISA method was conducted using the steps described below.
(§2) Biotin-labeled polyclonal anti-human IgG (eBioscience; 13-4998) was added to a streptavidin-coated 96-well plate (Thermo; 436014) in an amount of 200 µg per well, and left to stand for 30 minutes.
(§3) Following washing three times with PBS-T, 3 pmol of Fc-tagged Frizzled-2 (R&D systems; 1307-FZ), Frizzled-7 (R&D systems; 6178-FZ), or Frizzled-8 (R&D systems; 6129-FZ) was added per well and left to stand for 30 minutes to immobilize each Frizzled on the plate.
(§4) Following washing three times with PBS-T, the peptide complex diluted to 10 nM was added to Frizzled-2 and Frizzled-7, the peptide complex diluted to 500 nM was added to Frizzled-8, and the plate was left to stand for one hour.
(§5) Following washing three times with PBS-T, Anti-HA-tag mAb-HRP-Direct T (MBL; M180-7) that had been diluted 5000-fold with PBS-T was added and left to stand for 30 minutes.
(§6) Following washing three times with PBS-T, SureBlue TMB I-Component Microwell Peroxidase Substrate (SeraCare; 5120-0077) was added and left to stand for 10 minutes, and the reaction was then halted by adding an equal volume of TMB Stop Solution (SeraCare; 5150-0021).
(§7) Using an Infinite M Nano* (TECAN), the absorbance was measured at 450 nm. The binding signal for each peptide complex was calculated by subtracting the absorbance in those wells containing no added peptide complex from the absorbance in those wells containing the added peptide.

Frizzled-7 (FZD7) = target: T2, Frizzled-7 (FZD7) (Homo sapiens, UniProt O75084); test: Evaluation of binding activity to Frizzled using ELISA (Frizzled-7); conditions: peptide complex (linker structure number 9 added to the peptide) diluted to 10 nM; absorbance at 450 nm minus wells with no added peptide complex
T2 construct: purchased R&D systems 6178-FZ
Description: as §1, §2, §3, §4, §5, §6, §7

Frizzled-8 (FZD8) = target: T3, Frizzled-8 (FZD8) (Homo sapiens, UniProt Q9H461); test: Evaluation of binding activity to Frizzled using ELISA (Frizzled-8); conditions: peptide complex (linker structure number 9 added to the peptide) diluted to 500 nM; absorbance at 450 nm minus wells with no added peptide complex
T3 construct: purchased R&D systems 6129-FZ
T3 sequence (Q9H461 28-158 limits assumed): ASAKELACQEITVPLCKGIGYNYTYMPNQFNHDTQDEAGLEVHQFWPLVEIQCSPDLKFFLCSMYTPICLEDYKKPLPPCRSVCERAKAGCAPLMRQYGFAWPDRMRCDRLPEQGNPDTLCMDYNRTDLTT
Description: as §1, §2, §3, §4, §5, §6, §7

[1] = tested on: TCF/LEF Reporter-HEK 293 cells; test: Evaluation of Wnt signal activation capability, TCF/LEF reporter assay; format: cell-based; conditions: dimer structure numbers 1 to 43; classes 2-A to 2-E; tested at 0.1/1/10/100/1,000 nM depending on the dimer
Description: In order to evaluate the Wnt signal activation capability of each of the synthesized peptide complexes (dime structure numbers 1 to 67), transcriptional activity was evaluated using a TCF/LEF reporter.
TCF/LEF Reporter-HEK 293 cells (BPS Bioscience) were cultured in EMEM (Fuji FILM) containing 10% FBS (Thermo Fisher Scientific), 50 µg/mL Gentamicin (Nacalai Tesque), and 400 µg/mL Geneticin (Thermo Fisher Scientific).
The cells were detached using TrypLE (Thermo Fisher Scientific) and then suspended in EMEM containing 10% FBS, 50 µg/mL Gentamicin, and 10 mM LiCl (Sigma).
The cells were seeded into a white 96-well plate (Thermo Fisher Scientific) for cell adhesion and luminescence detection at a rate of 35,000 cells per well, and were then cultured overnight.
Subsequently, Recombinant Human Wnt-3a Protein (R&D systems) or a peptide complex was added in the presence of 1 nM Recombinant Human R-spondin 1 (R&D systems), and stimulation was conducted for 5 hours and 30 minutes in a CO2 incubator at 37°C.
The ONE-Glo Luciferase Assay System (Peomega) was added and shaken for 4 minutes, and the resulting luminescent signals were detected using a SpectraMax Paradigm multimode microplate reader (Molecular Devices).
The thus obtained signals were analyzed using a GraphPad Prism, and the percentage activity was calculated with the maximum value of the signal value induced by Wnt3a deemed to be 100% and the signal value with no stimulus deemed to be 0%. Evaluations were conducted with the Wnt concentration within a range from […] to determine the 100% value.
For each dimer structure number, tests were conducted using the peptide complex addition concentrations described below. • a) For dimer structure number 1, 1 nM, 10 nM, 100 nM, and 1,000 nM • b) For dimer structure numbers 2 to 4, 1 nM, 10 nM, and 100 nM • c) For dimer structure numbers 5 to 14, 0.1 nM, 1 nM, 10 nM, and 100 nM • d) For dimer structure numbers 15 to 43, 0.1 nM, 1 nM, and 10 nM • e) For dimer strength numbers 44 to 56, six points starting at 30 nM and then reducing by a common ratio of 1/4 (0.03 nM, 0.12 nM, 0.47 nM, 1.9 nM, 7.5 nM and 30 nM) • f) For dimer strength numbers 57 to 67, six points starting at 30 nM and then reducing by a common ratio of 1/5 (0.0096, 0.048, 0.24, 1.2, 6.0, and 30 nM)

Dimer structure number 46: dimer of peptide SEQ ID NO: 35 and peptide SEQ ID NO: 79 via linker structure number 8 (chain 1 [dF]S[Ala(4-THP)]IRY[NMeF]VT[NMeF]I[NMeV]GCG; chain 2 FRWDVR[NMeF]SNWN[Tic]NCG; cysteine pairing not given here; also: dimer via linker structure number 8, attachment not given here)
ELISA signal Frizzled-2 (FZD2) (Frizzled-2 (FZD2)): 0.3 | ELISA signal Frizzled-7 (FZD7) (Frizzled-7 (FZD7)): 0.3 | ELISA signal Frizzled-8 (FZD8) (Frizzled-8 (FZD8)): 0.0 | TCF/LEF Reporter Assay Result [1]: 2-C (peptide complexes that exhibited 50% or more activity when 10 nM of the peptide complex was added)

Dimer structure number 66: dimer of peptide SEQ ID NO: 76 and peptide SEQ ID NO: 163 via linker structure number 3 (chain 1 [dF]S[Cit]IRY[NMeF]VT[NMe4Pal]I[NMeV][dS]CG; chain 2 FR[Trp(7-aza)]DVR[X1]SE[Trp(7-aza)]N[Tic]DCG; not fully specified; cysteine pairing not given here; also: dimer via linker structure number 3, attachment not given here)
ELISA signal Frizzled-2 (FZD2) (Frizzled-2 (FZD2)): 1.7 | ELISA signal Frizzled-7 (FZD7) (Frizzled-7 (FZD7)): 1.7 | ELISA signal Frizzled-8 (FZD8) (Frizzled-8 (FZD8)): 1.5 | TCF/LEF Reporter Assay Result [1]: 2-B (peptide complexes that exhibited 50% or more activity when 1 nM of the peptide complex was added)

Peptide sequence number 99: peptide of formula B3, amino acid residues shown in Table 2 (FRWDVR[NMeF]SN[Trp(7-aza)]N[Tic]NCG)
ELISA signal Frizzled-2 (FZD2) (Frizzled-2 (FZD2)): 0.0 | ELISA signal Frizzled-7 (FZD7) (Frizzled-7 (FZD7)): 0.0 | ELISA signal Frizzled-8 (FZD8) (Frizzled-8 (FZD8)): 0.4 | TCF/LEF Reporter Assay Result [1]: 2-C (peptide complexes that exhibited 50% or more activity when 10 nM of the peptide complex was added)

df-S-D-I-R-Y-MeF-V-T-MeF-I-MeV-ds-C-G ([dF]SDIRY[NMeF]VT[NMeF]I[NMeV][dS]CG) [Peptide sequence number 66]
ELISA signal Frizzled-2 (FZD2) (Frizzled-2 (FZD2)): 1.5 | ELISA signal Frizzled-7 (FZD7) (Frizzled-7 (FZD7)): 1.4 | ELISA signal Frizzled-8 (FZD8) (Frizzled-8 (FZD8)): 0.7 | TCF/LEF Reporter Assay Result [1]: 2-C (peptide complexes that exhibited 50% or more activity when 10 nM of the peptide complex was added)
